Experimental findings from PMC3935488 are described below.

For experiment [1], the target named is human rod outer segment guanylate cyclase 1 (ROS-GC1), mutant P575L (human) (UniProt Q02846).
In experiment [2] the target is human rod outer segment guanylate cyclase 1 (ROS-GC1), wildtype (human) (UniProt Q02846).

B1: bovine guanylate cyclase-activating protein 1 (GCAP1), D6S mutant, myristoylated (natural protein)
chain: MGNIMSGKSVEELSSTECHQWYKKFMTECPSGQLTLYEFRQFFGLKNLSPWASQYVEQMFETFDFNKDGYIDFMEYVAALSLVLKGKVEQKLRWYFKLYDVDGNGCIDRDELLTIIRAIRAINPCSDSTMTAEEFTDTVFSKIDVNGDGELSLEEFMEGVQKDQMLLDTLTRSLDLTRIVRRLQNGEQDEEGASGRETEAAEADG
modifications: myristoylated (degree of myristoylation typically higher than 90%)
On to B1, for which the EC50 of guanylate cyclase activation (cGMP produced) with 0–20 μM Ca2+-free, Mg2+-bound GCAP1, HEK cell membranes, 30 min came to 3.32 µM in experiment [1] and 2.93 µM in experiment [2].

B2: bovine guanylate cyclase-activating protein 2 (GCAP2), myristoylated (natural protein)
chain: MGQQFSWEEAEENGAVGAADAAQLQEWYKKFLEECPSGTLFMHEFKRFFKVPDNEEATQYVEAMFRAFDTNGDNTIDFLEYVAALNLVLRGTLEHKLKWTFKIYDKDRNGCIDRQELLDIVESIYKLKKACSVEVEAEQQGKLLTPEEVVDRIFLLVDENGDGQLSLNEFVEGARRDKWVMKMLQMDLNPSSWISQQRRKSAMF
modifications: myristoylated (degree of myristoylation typically higher than 90%)
In the case of B2, the EC50 of guanylate cyclase activation (cGMP produced) with 0–20 μM Ca2+-free, Mg2+-bound GCAP2, HEK cell membranes, 30 min in experiment [1] was 7.44 µM; in experiment [2], 8.34 µM.
